For 167 variants, self-cleavage results are on record in the RNAGym collection of RNA variant scans (doi:10.7554/elife.80360).

B1: HDV Ribozyme (parent)
chain: GGCCGGCAUGGUCCCAGCCUCCUCGCUGGCGCCGGCUGGGCAACAUUCCGAGGGGACCGUCCCCUCGGUAAUGGCGAAUGGGACCCA

In this data set the parent is B1. Briefly: self-cleavage, relative activity (ratio to wild type); higher = more cleavage; co-transcriptional.
Consider C30A C64U, for which the self-cleavage turned out to be 0.554.
Take C3U G82A: the self-cleavage was found to be 0.283.
For the variant U12A G29C, the self-cleavage is 0.0386.
As for G39A U72G, the self-cleavage is 0.102.
To C4A G6U belongs 0.0791; to G6C G54C, 0.604; to C14G C49G, 0.383.
The value for G6U C15G was 0.0875; that for G34C U46A was 0.158; that for C7A U46G was 0.0755.
Consider C13G G76A, for which the self-cleavage turned out to be 0.
To G55C C75U belongs 0.0361.
For U20C C32G, the self-cleavage turned out to be 0.138.
Regarding A16U A83U, the self-cleavage was found to be 0.584.
For the variant C62U A71U, the self-cleavage is 1.05.
To A8U U60A belongs 0.939; to G38A G59A, 0.0801; to C49A A78G, 0.665.
The value for C22G C26G was 0.
For the variant C3A C7A, the self-cleavage was 0.044.
For A51C G59A, the self-cleavage amounted to 0.92.
On to U47A A71C, for which the self-cleavage was 0.85.
Turning to C18U G68A, the self-cleavage came out at 0.739.
As for G2C G81C, the self-cleavage came to 0.0583.
For the variant G38C A70G, the self-cleavage amounted to 0.0978.
To C19G G81U belongs 0.0997.
On to G39A C57G, for which the self-cleavage was 0.591.
As for C30G G67A, the self-cleavage stood at 0.0287.
Consider C14A U23A, for which the self-cleavage was 0.575.
To C13U G82A belongs 0.997; to G52U G82C, 0.194; to C14U G80A, 0.486.
On to G52A C63A, for which the self-cleavage stood at 0.774.
Take G11A G81C: the self-cleavage was 0.0396.
A42U G73U: the self-cleavage was found to be 0.378.
The value for G34C C61U was 0.154; that for C58G A70G was 1.03; that for G68C G82C was 0.259.
For the variant U47G G73C, the self-cleavage is 0.534.
As for A78C G82C, the self-cleavage worked out at 0.0831.
On to C13G C62A, for which the self-cleavage was 0.0692.
Turning to C32A U47C, the self-cleavage came to 0.0462.
To C63U A78U belongs 0.287; to U46C A78G, 0.554.
As for G50U G55C, the self-cleavage amounted to 1.03.
On to G25A G81A, for which the self-cleavage was 0.125.
Take G25A A45U: the self-cleavage was 0.0489.
Take G55U G67A: the self-cleavage stood at 0.881.
To C32G U37G belongs 0.0554; to G1U C57U, 0.428; to A51C A83C, 0.571.
U12C G82C: the self-cleavage came out at 0.0504.
For C19A U20A, the self-cleavage came out at 0.0234.
To C13A C61A belongs 0.163; to C3A U27G, 0.322.
On to U69G A77G, for which the self-cleavage is 1.29.
To C4U A83U belongs 0.115.
For U47A G76A, the self-cleavage came out at 0.901.
The value for C58G G67C was 0.739; that for C44G C75A was 0.406.
To C26G G82U belongs 0.604.
G73U G74C: the self-cleavage stood at 0.126.
With G31C G76C, the self-cleavage was 0.609.
To G6C U46C belongs 0.145; to C30U A70U, 0.782.
Regarding A45G G52U, the self-cleavage was determined as 0.731.
In the case of G17U G55C, the self-cleavage was determined as 0.453.
Regarding C22U C63G, the self-cleavage stood at 0.782.
On to C63G A70U, for which the self-cleavage was 0.564.
On to C41A G59C, for which the self-cleavage is 0.911.
As to U46G G59A, the self-cleavage turned out to be 1.09.
With G29C C49U, the self-cleavage was 0.128.
As to C4U U37A, the self-cleavage was determined as 0.
For the variant G6A G34U, the self-cleavage was found to be 0.
On to C14A G31U, for which the self-cleavage worked out at 0.148.
Turning to A70G G74U, the self-cleavage came to 0.65.
The value for G11C G29C was 0.0852; that for G29A U79C was 0.113; that for G2A C14A was 0.0804.
To C13A A71C belongs 0.135; to G54U A78C, 0.158.
To C58U C64U belongs 0.987.
For the variant C33A A51C, the self-cleavage came to 0.147.
As for U46A C66A, the self-cleavage came out at 0.727.
Turning to U60G A87U, the self-cleavage came to 0.906.
Regarding A43G G53A, the self-cleavage was found to be 0.532.
Take A43C A45U: the self-cleavage came out at 0.554.
As to C26G G31A, the self-cleavage was determined as 0.744.
With G25U G34U, the self-cleavage stood at 0.026.
On to G39C C86G, for which the self-cleavage is 0.259.
The value for G5U C18A was 0.0875; that for C21A C66U was 0.0683.
As for G5U U72C, the self-cleavage worked out at 0.119.
As for G53C C64U, the self-cleavage was found to be 0.703.
As for G10C G67A, the self-cleavage was determined as 0.712.
With G17U G81U, the self-cleavage was 0.381.
Turning to G34A C36G, the self-cleavage was 0.122.
As to C7G G76C, the self-cleavage was 0.151.
Regarding C14G U65A, the self-cleavage was found to be 0.65.
The value for G11A A42G was 0.0692.
As to C13U G81C, the self-cleavage came to 0.249.
The value for G52U C61G was 0.927; that for C4A G11C was 0.0604.
Turning to C3U C4A, the self-cleavage came out at 0.0817.
For G6U C7A, the self-cleavage came to 0.227.
The value for G6U G73U was 0; that for A16G A43C was 0.277; that for G73A C86A was 0.781.
Take C86U: the self-cleavage was 0.935.
Take C13U C75A: the self-cleavage turned out to be 0.148.
For the variant C33A C62G, the self-cleavage came to 0.208.
On to A8G G38U, for which the self-cleavage came to 0.0405.
Consider C22G U69C, for which the self-cleavage was 0.0755.
In the case of U12A C57U, the self-cleavage was 0.246.
Consider A43U A78U, for which the self-cleavage stood at 0.0489.
As for G1U C7U, the self-cleavage worked out at 0.269.
For the variant C21U U72C, the self-cleavage was found to be 0.284.
To C58U A77C belongs 0.489.
To G28U C32A belongs 0.0496.
On to C33G U60C, for which the self-cleavage is 0.196.
As for C44U C75A, the self-cleavage amounted to 0.108.
In the case of U23G C24A, the self-cleavage worked out at 0.706.
The value for C44U A83C was 0.314; that for C22A G73C was 0.0482.
Turning to A45C A56G, the self-cleavage was determined as 0.615.
For the variant G34U G73A, the self-cleavage turned out to be 0.109.
The value for G1A C19G was 0.0875; that for G11U G35U was 0.115.
As to G55C U60A, the self-cleavage stood at 1.05.
The value for G25U G59C was 0.0997; that for G39C U47C was 0.166.
For A45G A71G, the self-cleavage was 0.831.
For C22A G80A, the self-cleavage stood at 0.0479.
Take U47A C64U: the self-cleavage turned out to be 1.08.
For C62U A78U, the self-cleavage was found to be 0.282.
The value for G11A G80U was 0.0839; that for C24U C66A was 0.525; that for G59C A77G was 1.13.
Consider G28U G29U, for which the self-cleavage was 0.107.
Take C64G G67A: the self-cleavage stood at 0.356.
In the case of A51U C57G, the self-cleavage was 1.04.
On to G31A C61A, for which the self-cleavage turned out to be 0.554.
Turning to C75A A78C, the self-cleavage amounted to 0.104.
The value for C13U G67U was 0.712; that for C18A G73A was 0.0755; that for C62G C86A was 0.752.
As to C19G A78C, the self-cleavage was 0.119.
As to G6U G25C, the self-cleavage amounted to 0.0426.
In the case of G2U C58G, the self-cleavage stood at 0.
For U23C U47C, the self-cleavage is 1.04.
To G31C C33U belongs 0.123; to U47C C57A, 0.875; to C36G A77C, 0.
G17U U79C: the self-cleavage was determined as 0.584.
The value for A16G A56G was 0.864.
Consider A16U G76C, for which the self-cleavage turned out to be 0.973.
The value for A45U U69C was 0.959; that for C22A C33U was 0.191.
The value for C62G A71G was 0.346; that for C22U U27A was 0.227.
As to A42C A87U, the self-cleavage came out at 0.283.
As to U9A C63G, the self-cleavage was determined as 0.502.
On to C49A C57G, for which the self-cleavage was found to be 0.898.
Consider U79C C86A, for which the self-cleavage was 0.513.
As to C15A C18U, the self-cleavage amounted to 0.295.
In the case of G17C G73C, the self-cleavage was 0.0875.
Turning to C4G G17A, the self-cleavage was found to be 0.0791.
